Measurements: patent publication US20220143148A1, “COMPOSITIONS AND METHODS FOR MODULATING CGRP SIGNALING TO REGULATE INTESTINAL INNATE LYMPHOID CELLS” (The Broad Institute, Inc., priority 2019, published 2022)

Tested on: small intestinal immune cells
Assay: Droplet-based scRNA-seq of small intestinal immune cells (LP and PP), OVA vs PBS, clustering and differential expression
Type: in vivo, mouse
Conditions: PP, cluster ID 6
Excerpt: To comprehensively characterize small intestinal immune cells, Applicants generated scRNA-Seq profiles for 58,067 immune cells collected from lamina propria (LP) and Peyer's patch (PP) regions at steady state and after induction of a type 2 inflammatory reaction to ovalbumin (OVA) (Brandt et al., 2003) (FIGS. 1A and 8A). To ensure sufficient representation of rare cells, Applicants combined a normalization strategy—removing by flow sorting either a portion of IgD+ naïve B cells, which are the most abundant cell type in PPs, or all CD19+ and CD3+ T cells (FIG. 8B, Methods)—with profiling of a sufficiently large number of cells number (P>0.99 to recover at least 15 cells from each cluster, Methods) by massively parallel scRNA-seq (Haber et al., 2017) (Methods). Applicants obtained 36,797 and 21,270 high quality cells passing initial filtering (Methods) from PP and LP regions, respectively.
Overall, Applicants annotated 27 cell subsets across the two compartments, spanning T cells, B cells, ILCs, dendritic cells (DCs), myeloid cells and stromal cells, in frequencies ranging from 0.07% to 14%. Briefly, Applicants first partitioned the cells from the PP regions by unsupervised clustering (Methods) into 46 clusters, retained the 97% of cells that were robustly assigned cell identities in each cluster (Methods), assigned the cells from the LP regions to the 46 clusters using a classifier (Methods), and visualized the data with scvis (Ding et al., 2018), a deep generative model-based method (FIGS. 1B and 8C, Methods). Next, Applicants identified genes that were differentially expressed between the cells in each cluster and the remaining cells (Table 1, Methods), as well as between pairs of clusters (Table 2), to elucidate identities of similar cell types/states. Applicants excluded from downstream analysis clusters mostly consisting of contaminants from epithelium, likely doublets, or cells with a small number of Unique Molecular Identifiers (UMIs) (FIGS. 1C and 8D), or lacking distinct markers (Methods). Altogether, Applicants retained 27 clusters spanning 85% of the cells and each associated with distinct marker genes (FIG. 8E, Methods).
To induce allergic reaction to OVA, 6 to 7 weeks old mice were sensitized twice, two weeks apart, with 50 μg of OVA plus 1 mg of aluminum potassium sulfate adjuvant via intraperitoneal injection. Two weeks later, mice were orally administered with 50 mg of OVA on every other day for a total of five times. 1 μg of α-CGRP peptide was administered simultaneously when indicated. Mice were deprived of food for 3-4 hours in cages with wood chip bedding for limiting antigen degradation in the stomach before each intragastric challenge.
Isolation of cells from Peyer's patches (PPs). Peyer's patches (PPs) were carefully dissected from the small intestine under a stereo microscope using a fine scissor, pierced once with a fine forcep. Tissues were digested in freshly made digestion buffer (RPMI-1640 containing 100 μg/ml Liberase™ and 50 μg/ml DNase I at 37° C. on a roto-mixer. After 15 min, tissues were very gently mixed using a 1 ml pipette. The supernatant was collected and added to ice-cold MACS buffer (pH 7.4; PBS plus 2% FCS and 2 mM EDTA). Pre-warmed (37° C.) fresh digestion buffer was added to the remaining tissues. After rotation at 37° C. for 15 min, the mixture was vigorously mixed using a 1 ml pipette for 1 min. Supernatants from the two steps were combined and passed through 70 μm filters and stained for FACS (below).
Isolation of cells from the lamina propria (LP). The small intestines were opened longitudinally and washed in ice-cold PBS. For scRNA-seq, roughly 0.5 cm of fragments from each of the distal, middle and proximal regions without visible PPs were collected. Epithelial cells were dissociated by tissue rotation in pre-warmed (37° C.) PBS containing 10 mM EDTA at 37° C. for 15 min, followed by additional incubation on ice for 15 min. Tissues were then shaken vigorously. […]

B1: OVA (protein, UniProt P01012 2-386, looked up)
Ovalbumin: GSIGAASMEFCFDVFKELKVHHANENIFYCPIAIMSALAMVYLGAKDSTRTQINKVVRFDKLPGFGDSIEAQCGTSVNVHSSLRDILNQITKPNDVYSFSLASRLYAEERYPILPEYLQCVKELYRGGLEPINFQTAADQARELINSWVESQTNGIIRNVLQPSSVDSQTAMVLVNAIVFKGLWEKAFKDEDTQAMPFRVTEQESKPVQMMYQIGLFRVASMASEKMKILELPFASGTMSMLVLLPDEVSGLEQLESIINFEKLTEWTSSNVMEERKIKVYLPRMKMEEKYNLTSVLMAMGITDVFSSSANLSGISSAESLKISQAVHAAHAEINEAGREVVGSAEAGVDAASVSEEFRADHPFLFCIKHIATNAVLFFGRCVSP
What does the source list for B1?
5730508B09Rik percentage of expressing cells in OVA-treated group: 0.268; Ablim1 percentage of expressing cells in OVA-treated group: 0.403; Arid3a percentage of expressing cells in OVA-treated group: 0.212; Arl4a percentage of expressing cells in OVA-treated group: 0.228; Asph percentage of expressing cells in OVA-treated group: 0.377; Cdkn2d percentage of expressing cells in OVA-treated group: 0.747; Cfp percentage of expressing cells in OVA-treated group: 0.422; Ctsz percentage of expressing cells in OVA-treated group: 0.97; Fcer1g percentage of expressing cells in OVA-treated group: 0.94; Gadd45b percentage of expressing cells in OVA-treated group: 0.342; Gatad1 percentage of expressing cells in OVA-treated group: 0.34; Gnai2 percentage of expressing cells in OVA-treated group: 0.932; Grb2 percentage of expressing cells in OVA-treated group: 0.614; H2-DMa percentage of expressing cells in OVA-treated group: 0.878; Hnrnpa3 percentage of expressing cells in OVA-treated group: 0.851; Irf4 percentage of expressing cells in OVA-treated group: 0.256; Itgb7 percentage of expressing cells in OVA-treated group: 0.669; Klf3 percentage of expressing cells in OVA-treated group: 0.125; Klk1b27 percentage of expressing cells in OVA-treated group: 0.974; Lifr percentage of expressing cells in OVA-treated group: 0.595; Map3k1 percentage of expressing cells in OVA-treated group: 0.346; Mark3 percentage of expressing cells in OVA-treated group: 0.139; Net1 percentage of expressing cells in OVA-treated group: 0.53; Orai1 percentage of expressing cells in OVA-treated group: 0.274; Paqr5 percentage of expressing cells in OVA-treated group: 0.52; Pde4b percentage of expressing cells in OVA-treated group: 0.177; Pdia3 percentage of expressing cells in OVA-treated group: 0.844; Pink1 percentage of expressing cells in OVA-treated group: 0.282; Pten percentage of expressing cells in OVA-treated group: 0.429; Ptprcap percentage of expressing cells in OVA-treated group: 0.941; Rab7b percentage of expressing cells in OVA-treated group: 0.223; Rsrp1 percentage of expressing cells in OVA-treated group: 0.754; Sema4b percentage of expressing cells in OVA-treated group: 0.531; Sertad1 percentage of expressing cells in OVA-treated group: 0.12; Snrnp70 percentage of expressing cells in OVA-treated group: 0.43; Tmem50a percentage of expressing cells in OVA-treated group: 0.854; Tmem59 percentage of expressing cells in OVA-treated group: 0.833; Tmem86a percentage of expressing cells in OVA-treated group: 0.204; Tsix percentage of expressing cells in OVA-treated group: 0.23; Txndc5 percentage of expressing cells in OVA-treated group: 0.699; 5730508B09Rik LN (average fold change) (OVA vs PBS): −0.218; Ablim1 LN (average fold change) (OVA vs PBS): −0.197; Arid3a LN (average fold change) (OVA vs PBS): −0.329; Arl4a LN (average fold change) (OVA vs PBS): −0.276; Asph LN (average fold change) (OVA vs PBS): −0.195; Cdkn2d LN (average fold change) (OVA vs PBS): 0.244; Cfp LN (average fold change) (OVA vs PBS): 0.312; Ctsz LN (average fold change) (OVA vs PBS): 0.156; Fcer1g LN (average fold change) (OVA vs PBS): 0.160; Gadd45b LN (average fold change) (OVA vs PBS): −0.220; Gatad1 LN (average fold change) (OVA vs PBS): −0.199; Gnai2 LN (average fold change) (OVA vs PBS): −0.175; Grb2 LN (average fold change) (OVA vs PBS): −0.222; H2-DMa LN (average fold change) (OVA vs PBS): 0.190; Hnrnpa3 LN (average fold change) (OVA vs PBS): 0.164; Irf4 LN (average fold change) (OVA vs PBS): −0.248; Itgb7 LN (average fold change) (OVA vs PBS): 0.238; Klf3 LN (average fold change) (OVA vs PBS): −0.428; Klk1b27 LN (average fold change) (OVA vs PBS): 0.170; Lifr LN (average fold change) (OVA vs PBS): 0.265; Map3k1 LN (average fold change) (OVA vs PBS): −0.227; Mark3 LN (average fold change) (OVA vs PBS): −0.383; Net1 LN (average fold change) (OVA vs PBS): 0.285; Orai1 LN (average fold change) (OVA vs PBS): −0.245; Paqr5 LN (average fold change) (OVA vs PBS): 0.279; Pde4b LN (average fold change) (OVA vs PBS): −0.282; Pdia3 LN (average fold change) (OVA vs PBS): 0.157; Pink1 LN (average fold change) (OVA vs PBS): −0.291; Pten LN (average fold change) (OVA vs PBS): −0.226; Ptprcap LN (average fold change) (OVA vs PBS): 0.159; Rab7b LN (average fold change) (OVA vs PBS): −0.285; Rsrp1 LN (average fold change) (OVA vs PBS): 0.195; Sema4b LN (average fold change) (OVA vs PBS): 0.221; Sertad1 LN (average fold change) (OVA vs PBS): −0.396
